According to doi:10.64898/2025.12.19.695442, “TRIM37 recognizes a bipartite degron to ubiquitinate centrosome substrates” (bioRxiv, 2025):
Substitutions are numbered along the chain they refer to. Numbers in names are those of the source. Blank lines part the entries; values can stand above or below the molecule they belong to.

B1: TRIM37 (enzyme, UniProt O94972 1-964, looked up)
chain: MDEQSVESIAEVFRCFICMEKLRDARLCPHCSKLCCFSCIRRWLTEQRAQCPHCRAPLQLRELVNCRWAEEVTQQLDTLQLCSLTKHEENEKDKCENHHEKLSVFCWTCKKCICHQCALWGGMHGGHTFKPLAEIYEQHVTKVNEEVAKLRRRLMELISLVQEVERNVEAVRNAKDERVREIRNAVEMMIARLDTQLKNKLITLMGQKTSLTQETELLESLLQEVEHQLRSCSKSELISKSSEILMMFQQVHRKPMASFVTTPVPPDFTSELVPSYDSATFVLENFSTLRQRADPVYSPPLQVSGLCWRLKVYPDGNGVVRGYYLSVFLELSAGLPETSKYEYRVEMVHQSCNDPTKNIIREFASDFEVGECWGYNRFFRLDLLANEGYLNPQNDTVILRFQVRSPTFFQKSRDQHWYITQLEAAQTSYIQQINNLKERLTIELSRTQKSRDLSPPDNHLSPQNDDALETRAKKSACSDMLLEGGPTTASVREAKEDEEDEEKIQNEDYHHELSDGDLDLDLVYEDEVNQLDGSSSSASSTATSNTEENDIDEETMSGENDVEYNNMELEEGELMEDAAAAGPAGSSHGYVGSSSRISRRTHLCSAATSSLLDIDPLILIHLLDLKDRSSIENLWGLQPRPPASLLQPTASYSRKDKDQRKQQAMWRVPSDLKMLKRLKTQMAEVRCMKTDVKNTLSEIKSSSAASGDMQTSLFSADQAALAACGTENSGRLQDLGMELLAKSSVANCYIRNSTNKKSNSPKPARSSVAGSLSLRRAVDPGENSRSKGDCQTLSEGSPGSSQSGSRHSSPRALIHGSIGDILPKTEDRQCKALDSDAVVVAVFSGLPAVEKRRKMVTLGANAKGGHLEGLQMTDLENNSETGELQPVLPEGASAAPEEGMSSDSDIECDTENEEQEEHTSVGGFHDSFMVMTQPPDEDTHSSFPDGEQIGPEDLSFNTDENSGR
notes: TRIM37, E3 ubiquitin ligase; 459-964; The co-immunoprecipitation methods say only 'TRIM37 (1 ug)', the same amount as the Abcam protein of the ubiquitination assay; also called purified TRIM37; source: bought: Abcam ab269066
B2: TRIM37(C18R) (enzyme, UniProt O94972 1-964, looked up)
chain: B1 chain with C18R
notes: TRIM37 with C18R; cross-links are reported from the N-terminus (a.a. 1-458) and the tail (a.a. 459-964); source: purified
B3: Cep192 C-terminus fragment (2070-2537 aa), GFP-tagged (domain or fragment, UniProt Q8TEP8-3 2070-2537, looked up)
chain: REFLQPSSKASLESTSDLGASGKHGGNVSLDVLPVKGPQGSPLLSRAARPPLDQLASEEPWTVLPEHLILVAPSPCDMAKTGRFQIVNNSVRLLRFELCWPAHCLTVTPQHGCVAPESKLQILVSPNSSLSTKQSMFPWSGLIYIHCDDGQKKIVKVQIREDLTQVELLTRLTSKPFGILSPVSEPSVSHLVKPMTKPPSTKVEIRNKSITFPTTEPGETSESCLELENHGTTDVKWHLSSLAPPYVKGVDESGDVFRATYAAFRCSPISGLLESHGIQKVSITFLPRGRGDYAQFWDVECHPLKEPHMKHTLRFQLSGQSIEAENEPENACLSTDSLIKIDHLVKPRRQAVSEASARIPEQLDVTARGVYAPEDVYRFRPTSVGESRTLKVNLRNNSFITHSLKFLSPREPFYVKHSKYSLRAQHYINMPVQFKPKSAGKFEALLVIQTDEGKSIAIRLIGEALGKN
notes: Cep192 residues 2070-2537 (ASH6, ASH7, ASH8 and the IDRs between them); also called C-terminal Cep192; Cep192 C-terminal fragment; source: purified (Ni-NTA, gel filtration)

How the values were obtained:
[1] = molecular target: Centrobin peptide motif (Homo sapiens) (UniProt Q8N137); conditions: cited from earlier work
[2] = molecular target: GFP-Cep192(IDR+ASH8); experiment: pull-down; supernatant depletion: 30 nM TRIM37 with a range of GFP-Cep192(IDR+ASH8) concentrations and GFP-Trap magnetic particles, 25 mM HEPES pH 7.4, 150 mM KCl, 1 mM DTT, 1 hr at room temperature; unbound TRIM37 in the supernatant by Western blot; one phase association fit
[3] = molecular target: T1, full-length Cep192 tagged with GFP (UniProt Q8TEP8-3 1-2537); experiment: pull-down; purified GFP fusion (1 uM) incubated with TRIM37 (1 ug) 1 hr at 37°C, precipitated with GFP-Trap magnetic particles; washes 150 mM KCl, 25 mM HEPES, 1% glycerol, 0.05% NP-40, last wash 500 mM KCl; Western blot against TRIM37; conditions: both partners purified
T1 construct: Cep192, full length (2537 aa by the printed range 2070-2537); MW with GFP = 307 kDa; also called GFP-Cep192; source: baculovirus-infected SF9 insect cells, purified (Ni-NTA, gel filtration)

[4] = molecular target: the molecule itself; experiment: cross-linking; XL-MS: 5 uM TRIM37(C18R) and 5 uM IDR+ASH8, 100 nM ZnCl2, 25 mM HEPES, 150 mM KCl pH 7.4, 20 min at 37°C, 1 mM DSSO 5 min; band of the complex cut from SDS-PAGE; calculated FDR <1%
[5] = molecular target: B1; experiment: pull-down; purified GFP fusion (1 uM) incubated with TRIM37 (1 ug) 1 hr at 37°C, precipitated with GFP-Trap magnetic particles; washes 150 mM KCl, 25 mM HEPES, 1% glycerol, 0.05% NP-40, last wash 500 mM KCl; Western blot against TRIM37; conditions: both partners purified

Molecule: TRIM37 MATH (from UniProt O94972)
Kd [1]: 14 µM

Kd [2]: 0.075 µM
Molecule: TRIM37 (from UniProt O94972 1-964)

Molecule: B1
binding result [3]: binds

Molecule: B2
binding result [4]: binds

Molecule: B3
binding result [5]: binds
